According to publication doi:10.1101/2022.12.30.522300 (bioRxiv, 2022):

Legend:
[1] = target: RBM17–UHM (RBM17/ΔNΔG), from pETM11 (human); assay: ITC
[2] = target: T1, full-length RBM17, from pETM11 (human, UniProt Q96I25 1-401); assay: NMR titration
T1 sequence (looked up): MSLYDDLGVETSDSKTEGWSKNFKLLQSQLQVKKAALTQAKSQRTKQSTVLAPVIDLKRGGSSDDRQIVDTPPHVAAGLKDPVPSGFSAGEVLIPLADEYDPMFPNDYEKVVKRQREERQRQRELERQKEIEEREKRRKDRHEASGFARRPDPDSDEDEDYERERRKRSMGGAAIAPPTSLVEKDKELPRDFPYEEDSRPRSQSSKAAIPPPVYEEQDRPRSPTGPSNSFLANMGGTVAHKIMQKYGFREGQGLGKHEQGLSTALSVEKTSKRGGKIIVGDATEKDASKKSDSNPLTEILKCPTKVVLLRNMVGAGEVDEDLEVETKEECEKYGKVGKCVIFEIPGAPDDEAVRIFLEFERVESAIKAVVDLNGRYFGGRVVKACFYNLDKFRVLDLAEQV

GST-RBM17 = target: T2, GST-RBM17 (human, UniProt Q96I25 1-401); assay: pull-down
T2 sequence (looked up): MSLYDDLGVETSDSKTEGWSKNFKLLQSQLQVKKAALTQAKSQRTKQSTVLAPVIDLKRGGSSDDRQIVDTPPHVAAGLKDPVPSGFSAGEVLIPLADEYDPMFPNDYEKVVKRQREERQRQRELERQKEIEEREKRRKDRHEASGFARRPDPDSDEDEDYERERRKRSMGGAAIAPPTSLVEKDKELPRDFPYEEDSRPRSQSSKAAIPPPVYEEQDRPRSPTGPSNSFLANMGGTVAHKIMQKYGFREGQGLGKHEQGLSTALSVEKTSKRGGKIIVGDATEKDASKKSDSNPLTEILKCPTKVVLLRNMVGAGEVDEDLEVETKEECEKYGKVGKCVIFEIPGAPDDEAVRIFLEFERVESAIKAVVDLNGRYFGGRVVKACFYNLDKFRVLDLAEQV

## SAP30BP/ULM (domain or fragment)
[1]
  Kd: 34.4 µM

B1: full-length SAP30BP, from pETM11 (natural protein, human, UniProt Q9UHR5 1-308, looked up)
chain: MAGKKNVLSSLAVYAEDSEPESDGEAGIEAVGSAAEEKGGLVSDAYGEDDFSRLGGDEDGYEEEEDENSRQSEDDDSETEKPEADDPKDNTEAEKRDPQELVASFSERVRNMSPDEIKIPPEPPGRCSNHLQDKIQKLYERKIKEGMDMNYIIQRKKEFRNPSIYEKLIQFCAIDELGTNYPKDMFDPHGWSEDSYYEALAKAQKIEMDKLEKAKKERTKIEFVTGTKKGTTTNATSTTTTTASTAVADAQKRKSKWDSAIPVTTIAQPTILTTTATLPAVVTVTTSASGSKTTVISAVGTIVKKAKQ
[2]
  binding result: binds

B2: recombinant SAP30BP (GST tag removed) (natural protein, human, UniProt Q9UHR5 1-308, looked up)
chain: MAGKKNVLSSLAVYAEDSEPESDGEAGIEAVGSAAEEKGGLVSDAYGEDDFSRLGGDEDGYEEEEDENSRQSEDDDSETEKPEADDPKDNTEAEKRDPQELVASFSERVRNMSPDEIKIPPEPPGRCSNHLQDKIQKLYERKIKEGMDMNYIIQRKKEFRNPSIYEKLIQFCAIDELGTNYPKDMFDPHGWSEDSYYEALAKAQKIEMDKLEKAKKERTKIEFVTGTKKGTTTNATSTTTTTASTAVADAQKRKSKWDSAIPVTTIAQPTILTTTATLPAVVTVTTSASGSKTTVISAVGTIVKKAKQ
GST-RBM17
  binding result: binds
